These are literature values, as cited in article PMC3522611.

Usually Kd stands for the constant that tells how readily two partners part at equilibrium.

In this data set the target is EGFR (Homo sapiens) (UniProt P00533).

In the case of HB-EGF (from UniProt Q99075), the Kd is 3.8 nM.
